The source of these data is PMC10402027 (bioRxiv, 2023).

The target in this experiment is T1, progesterone receptor, B isoform (PR-B) (UniProt P06401 1-933).
T1 sequence: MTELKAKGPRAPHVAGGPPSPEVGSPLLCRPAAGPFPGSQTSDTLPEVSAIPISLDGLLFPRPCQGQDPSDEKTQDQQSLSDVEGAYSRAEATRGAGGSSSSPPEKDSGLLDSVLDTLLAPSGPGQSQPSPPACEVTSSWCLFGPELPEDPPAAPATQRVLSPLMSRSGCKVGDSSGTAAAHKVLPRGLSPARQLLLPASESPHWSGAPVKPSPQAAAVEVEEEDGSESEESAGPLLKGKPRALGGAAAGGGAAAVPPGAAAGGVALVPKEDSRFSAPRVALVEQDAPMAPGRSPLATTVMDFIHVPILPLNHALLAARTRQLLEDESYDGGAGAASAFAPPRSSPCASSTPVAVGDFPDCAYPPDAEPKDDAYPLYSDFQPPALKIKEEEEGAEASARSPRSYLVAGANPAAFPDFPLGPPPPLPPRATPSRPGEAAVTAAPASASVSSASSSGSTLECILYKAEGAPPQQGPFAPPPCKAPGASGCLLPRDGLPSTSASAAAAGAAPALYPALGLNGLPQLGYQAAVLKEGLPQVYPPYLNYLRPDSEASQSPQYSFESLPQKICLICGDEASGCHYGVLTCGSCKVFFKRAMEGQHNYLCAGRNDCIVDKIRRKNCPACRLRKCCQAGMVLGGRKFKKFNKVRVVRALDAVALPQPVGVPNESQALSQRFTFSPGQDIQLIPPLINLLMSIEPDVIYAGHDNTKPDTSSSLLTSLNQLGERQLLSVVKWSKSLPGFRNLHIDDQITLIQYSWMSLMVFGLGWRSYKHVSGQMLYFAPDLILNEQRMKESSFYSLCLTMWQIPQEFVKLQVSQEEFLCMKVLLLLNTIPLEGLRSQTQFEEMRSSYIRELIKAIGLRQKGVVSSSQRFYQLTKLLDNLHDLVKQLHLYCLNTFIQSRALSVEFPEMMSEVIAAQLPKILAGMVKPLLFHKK
Nature of the experiment: FRET or BRET. Background: BRET reads energy transfer from a luciferase to a nearby fluorophore.

B1: estrogen receptor alpha Y537S (ERα Y537S) (receptor)
chain: MTMTLHTKASGMALLHQIQGNELEPLNRPQLKIPLERPLGEVYLDSSKPAVYNYPEGAAYEFNAAAAANAQVYGQTGLPYGPGSEAAAFGSNGLGGFPPLNSVSPSPLMLLHPPPQLSPFLQPHGQQVPYYLENEPSGYTVREAGPPAFYRPNSDNRRQGGRERLASTNDKGSMAMESAKETRYCAVCNDYASGYHYGVWSCEGCKAFFKRSIQGHNDYMCPATNQCTIDKNRRKSCQACRLRKCYEVGMMKGGIRKDRRGGRMLKHKRQRDDGEGRGEVGSAGDMRAANLWPSPLMIKRSKKNSLALSLTADQMVSALLDAEPPILYSEYDPTRPFSEASMMGLLTNLADRELVHMINWAKRVPGFVDLTLHDQVHLLECAWLEILMIGLVWRSMEHPGKLLFAPNLLLDRNQGKCVEGMVEIFDMLLATSSRFRMMNLQGEEFVCLKSIILLNSGVYTFLSSTLKSLEEKDHIHRVLDKITDTLIHLMAKAGLTLQQQHQRLAQLLLILSHIRHMSNKGMEHLYSMKCKNVVPLSDLLLEMLDAHRLHAPTSRGGASVEETDQSHLATAGSTSSHSLQKYYITGEAEGFPATV
Consider B1, for which the “fold of the progesterone-induced increase in NanoBRET proximity against ERα WT” value is roughly 2 fold.
